The values that follow come from patent US20040175731, “Methods and products for treating staphylococcal infections” (The Brigham and Women's Hospital, Inc., published 2004).

In data set [1] the target is T1, IcaR (Staphylococcus aureus, UniProt Q9RQQ0 SEQ:1-186).
T1 sequence: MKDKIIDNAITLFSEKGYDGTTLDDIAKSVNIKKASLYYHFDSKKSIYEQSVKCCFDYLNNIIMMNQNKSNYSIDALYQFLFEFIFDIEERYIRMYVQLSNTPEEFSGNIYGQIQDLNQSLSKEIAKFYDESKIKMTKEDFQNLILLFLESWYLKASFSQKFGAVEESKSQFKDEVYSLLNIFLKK
Put plainly: EMSA; on ice; competed by 100x specific competitor. Conditions: tags: N-terminal His6 (pCRT7-NT); chain copies: 2; label: 32P. (In general: In EMSA bound probe runs differently from free probe, usually more slowly.)

Data set [2] deals with T2, TcaR (Staphylococcus aureus, UniProt Q9F4G3 Q9F4G3:1-151). Put plainly: footprint; data not shown; multiple sites protected, specific and high affinity. The conditions noted are these: chain copies: 2; label: 32P.
Data set [3] concerns the target T1, IcaR. Nature of the data set: EMSA; recombinant IcaR failed to bind either short probe. Conditions: tags: N-terminal His6 (pCRT7-NT); chain copies: 2; label: 32P.
For data set [4], the target named is T2, TcaR. Put plainly: footprint; data not shown; protection much the same as WT. The conditions noted are these: chain copies: 2; label: 32P.
In data set [5] the target is T1, IcaR. Put plainly: EMSA; no detectable difference from WT probe. Conditions: tags: N-terminal His6 (pCRT7-NT); chain copies: 2; label: 32P.
The target of data set [6] is T1, IcaR. Nature of the data set: EMSA; data not shown. Conditions: tags: N-terminal His6 (pCRT7-NT); chain copies: 2; label: 32P.

T2 sequence (Q9F4G3 whole entry, one chain of several): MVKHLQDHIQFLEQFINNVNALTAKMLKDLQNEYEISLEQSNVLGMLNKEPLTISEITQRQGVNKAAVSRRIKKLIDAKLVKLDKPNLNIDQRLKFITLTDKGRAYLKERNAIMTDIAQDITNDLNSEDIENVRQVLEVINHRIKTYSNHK

B1: 198-bp WT ica promoter probe (dsDNA)
DNA 1: ATTGCGTTATCAATAATCTTATCCTTCAATTTTTATAACCCCCTACTGAAAATTAATCACACTATGTTACAGGAAAATTAAGTTGCAATTACAAATATTTCCGTTTAATTATAACAACAATCTATTGCAAATTAAAATACTATCAATTACCATATGGCTTACAACCTAACTAACGAAAGGTAGGTAAAGAAATTGCAA
DNA 2: TTGCAATTTCTTTACCTACCTTTCGTTAGTTAGGTTGTAAGCCATATGGTAATTGATAGTATTTTAATTTGCAATAGATTGTTGTTATAATTAAACGGAAATATTTGTAATTGCAACTTAATTTTCCTGTAACATAGTGTGATTAATTTTCAGTAGGGGGTTATAAAAATTGAAGGATAAGATTATTGATAACGCAAT
As to B1, the binding result with IcaR [1] and with TcaR [2] was “binds” in each case.

B2: DEL/MUC 48-bp (dsDNA)
DNA 1: CTATGTTACAGGAAAATTAAGTTGCAATTACAAACCGTTTAATTATAA
DNA 2: TTATAATTAAACGGTTTGTAATTGCAACTTAATTTTCCTGTAACATAG
As for B2, in the data set with IcaR [3], the binding result is reported as “no binding”.

B3: 193-bp MUC ica promoter probe (dsDNA)
DNA 1: ATTGCGTTATCAATAATCTTATCCTTCAATTTTTATAACCCCCTACTGAAAATTAATCACACTATGTTACAGGAAAATTAAGTTGCAATTACAAACCGTTTAATTATAACAACAATCTATTGCAAATTAAAATACTATCAATTACCATATGGCTTACAACCTAACTAACGAAAGGTAGGTAAAGAAATTGCAA
DNA 2: TTGCAATTTCTTTACCTACCTTTCGTTAGTTAGGTTGTAAGCCATATGGTAATTGATAGTATTTTAATTTGCAATAGATTGTTGTTATAATTAAACGGTTTGTAATTGCAACTTAATTTTCCTGTAACATAGTGTGATTAATTTTCAGTAGGGGGTTATAAAAATTGAAGGATAAGATTATTGATAACGCAAT
In the case of B3, the binding result with TcaR [4] and in the data set with IcaR [5] was “binds” each time.

B4: WTshort 53-bp (dsDNA)
DNA 1: CTATGTTACAGGAAAATTAAGTTGCAATTACAAATATTTCCGTTTAATTATAA
DNA 2: TTATAATTAAACGGAAATATTTGTAATTGCAACTTAATTTTCCTGTAACATAG
For the molecule B4, the binding result in the data set with IcaR [6] is on record as “no binding”.
